Reference: patent US20210253733A1

Experiments:
[1] = biological target: purified recombinant human CD163 protein used for SPR (human) (UniProt Q86VB7); assay: SPR (Biacore T200), CD163 amine-coupled to chip, antibody as analyte, calcium-containing buffer
[2] = biological target: purified recombinant human CD163 protein used for SPR (human) (UniProt Q86VB7); assay: SPR (Biacore T200), CD163 amine-coupled to chip, antibody as analyte, EDTA buffer
[3] = biological target: human CD163 expressed on human myeloid cells (M2c macrophages, M2 macrophages, in vitro MDSCs) (human) (UniProt Q86VB7); assay: flow cytometry, APC-labelled anti-huCD163 on M2c macrophages pre-treated with 200 ug/mL goat control polyclonal antibody
[4] = biological target: His-tagged recombinant human CD163 (R&D Systems, No. 1607-CD-050) (human) (UniProt Q86VB7); assay: ELISA, plate coated with 5 ug/mL His-tagged recombinant human CD163, HRP anti-mouse IgG F(ab')2, A450
[5] = biological target: human CD163 expressed on human myeloid cells (M2c macrophages, M2 macrophages, in vitro MDSCs) (human) (UniProt Q86VB7); assay: flow cytometry, unconjugated anti-CD163 (MAB1607) with labelled secondary antibody on untreated M2c macrophages
[6] = biological target: recombinant murine CD163 (R&D Systems, No. 7435-CD-050) (murine) (UniProt Q2VLH6); assay: ELISA, plate coated with 5 ug/mL recombinant murine CD163, A450
[7] = biological target: truncated human CD163 ECD SRCR domain 1-5 fragment with C-terminus histidine tag (HEK293-6E) (human) (UniProt Q86VB7); assay: binding titration on truncated huCD163 SRCR 1-5
[8] = biological target: truncated human CD163 ECD SRCR domain 1-5 fragment with C-terminus histidine tag (HEK293-6E) (human) (UniProt Q86VB7); assay: ratio of EC50 on huCD163 SRCR 1-5 to EC50 on huCD163 ECD
[9] = biological target: human CD163 ECD with a C-terminal 8 histidine tag (HEK293-6E) (human) (UniProt Q86VB7); assay: binding titration on recombinant huCD163 ECD
Sequence of human CD163 ECD with a C-terminal 8 histidine tag (HEK293-6E) (human) (Q86VB7 other isoform, or with tags, fused parts or gaps limits assumed): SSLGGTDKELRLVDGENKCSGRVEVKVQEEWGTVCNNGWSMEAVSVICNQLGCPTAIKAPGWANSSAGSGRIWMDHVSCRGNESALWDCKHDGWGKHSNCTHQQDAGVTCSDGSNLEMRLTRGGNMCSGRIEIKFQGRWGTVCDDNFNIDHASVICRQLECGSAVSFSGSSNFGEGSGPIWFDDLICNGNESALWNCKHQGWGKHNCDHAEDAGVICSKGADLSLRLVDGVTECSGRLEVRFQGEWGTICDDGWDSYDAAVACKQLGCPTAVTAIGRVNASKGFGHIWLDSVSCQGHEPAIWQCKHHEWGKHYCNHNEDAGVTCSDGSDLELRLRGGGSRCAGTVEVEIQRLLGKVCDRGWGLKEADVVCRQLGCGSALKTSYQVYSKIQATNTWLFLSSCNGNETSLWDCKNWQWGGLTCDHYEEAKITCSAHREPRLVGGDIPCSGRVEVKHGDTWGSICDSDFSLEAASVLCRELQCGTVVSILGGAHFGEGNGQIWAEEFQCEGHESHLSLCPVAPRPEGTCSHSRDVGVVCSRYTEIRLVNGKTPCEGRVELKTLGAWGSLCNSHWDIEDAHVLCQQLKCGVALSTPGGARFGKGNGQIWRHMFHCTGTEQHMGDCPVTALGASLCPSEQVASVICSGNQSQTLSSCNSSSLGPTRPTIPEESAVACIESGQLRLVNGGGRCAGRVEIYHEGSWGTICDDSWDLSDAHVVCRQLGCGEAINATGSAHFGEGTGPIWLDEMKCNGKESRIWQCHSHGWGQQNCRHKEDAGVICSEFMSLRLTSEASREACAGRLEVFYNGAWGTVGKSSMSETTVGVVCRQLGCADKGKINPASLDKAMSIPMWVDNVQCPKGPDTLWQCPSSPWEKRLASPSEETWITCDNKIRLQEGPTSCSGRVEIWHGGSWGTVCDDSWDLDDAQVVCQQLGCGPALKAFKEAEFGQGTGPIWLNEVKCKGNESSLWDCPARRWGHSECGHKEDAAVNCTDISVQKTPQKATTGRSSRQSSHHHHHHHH

Sequence of truncated human CD163 ECD SRCR domain 1-5 fragment with C-terminus histidine tag (HEK293-6E) (human) (Q86VB7 42-578 limits assumed): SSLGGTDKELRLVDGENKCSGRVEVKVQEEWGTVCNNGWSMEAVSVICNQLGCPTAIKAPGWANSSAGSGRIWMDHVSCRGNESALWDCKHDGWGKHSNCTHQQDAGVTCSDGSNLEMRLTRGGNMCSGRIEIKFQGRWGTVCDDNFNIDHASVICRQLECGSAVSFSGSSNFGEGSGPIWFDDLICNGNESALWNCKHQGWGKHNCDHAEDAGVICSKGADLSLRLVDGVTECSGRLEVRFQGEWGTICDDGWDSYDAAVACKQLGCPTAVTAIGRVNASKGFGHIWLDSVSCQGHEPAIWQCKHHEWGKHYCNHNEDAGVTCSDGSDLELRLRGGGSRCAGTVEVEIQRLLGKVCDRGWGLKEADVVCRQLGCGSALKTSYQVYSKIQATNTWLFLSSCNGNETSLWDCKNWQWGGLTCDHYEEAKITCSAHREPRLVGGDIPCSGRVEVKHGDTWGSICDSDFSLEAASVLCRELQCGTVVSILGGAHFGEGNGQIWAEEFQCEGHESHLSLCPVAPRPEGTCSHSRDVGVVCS
Sequence of purified recombinant human CD163 protein used for SPR (human) (Q86VB7 46-1050 limits assumed): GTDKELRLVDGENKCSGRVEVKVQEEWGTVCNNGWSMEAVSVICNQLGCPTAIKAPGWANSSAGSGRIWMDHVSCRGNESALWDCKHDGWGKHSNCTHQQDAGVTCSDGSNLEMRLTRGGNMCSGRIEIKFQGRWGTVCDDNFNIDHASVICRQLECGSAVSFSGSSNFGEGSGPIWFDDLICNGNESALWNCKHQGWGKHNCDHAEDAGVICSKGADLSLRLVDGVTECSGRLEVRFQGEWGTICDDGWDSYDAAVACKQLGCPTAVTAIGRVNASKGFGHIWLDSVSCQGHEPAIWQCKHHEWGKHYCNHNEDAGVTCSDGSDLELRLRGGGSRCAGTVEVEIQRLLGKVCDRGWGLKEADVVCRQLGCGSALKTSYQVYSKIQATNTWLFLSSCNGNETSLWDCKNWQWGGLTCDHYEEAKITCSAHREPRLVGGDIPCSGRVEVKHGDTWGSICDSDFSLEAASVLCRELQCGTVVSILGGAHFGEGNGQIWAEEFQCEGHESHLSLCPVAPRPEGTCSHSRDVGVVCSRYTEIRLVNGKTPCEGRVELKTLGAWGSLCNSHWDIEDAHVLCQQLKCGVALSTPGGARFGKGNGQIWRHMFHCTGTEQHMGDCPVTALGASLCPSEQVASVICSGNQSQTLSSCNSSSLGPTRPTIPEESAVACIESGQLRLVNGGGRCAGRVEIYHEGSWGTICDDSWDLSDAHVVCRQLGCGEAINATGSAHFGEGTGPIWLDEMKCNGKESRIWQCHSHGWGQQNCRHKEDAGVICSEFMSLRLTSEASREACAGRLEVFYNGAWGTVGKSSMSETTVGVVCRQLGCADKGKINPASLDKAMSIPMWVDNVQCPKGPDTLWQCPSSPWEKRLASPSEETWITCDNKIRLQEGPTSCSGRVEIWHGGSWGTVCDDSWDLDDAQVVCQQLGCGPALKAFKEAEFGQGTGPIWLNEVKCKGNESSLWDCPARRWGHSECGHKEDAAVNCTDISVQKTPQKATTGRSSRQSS
Sequence of human CD163 expressed on human myeloid cells (M2c macrophages, M2 macrophages, in vitro MDSCs) (human) (Q86VB7 42-1114, tags or fused parts left off): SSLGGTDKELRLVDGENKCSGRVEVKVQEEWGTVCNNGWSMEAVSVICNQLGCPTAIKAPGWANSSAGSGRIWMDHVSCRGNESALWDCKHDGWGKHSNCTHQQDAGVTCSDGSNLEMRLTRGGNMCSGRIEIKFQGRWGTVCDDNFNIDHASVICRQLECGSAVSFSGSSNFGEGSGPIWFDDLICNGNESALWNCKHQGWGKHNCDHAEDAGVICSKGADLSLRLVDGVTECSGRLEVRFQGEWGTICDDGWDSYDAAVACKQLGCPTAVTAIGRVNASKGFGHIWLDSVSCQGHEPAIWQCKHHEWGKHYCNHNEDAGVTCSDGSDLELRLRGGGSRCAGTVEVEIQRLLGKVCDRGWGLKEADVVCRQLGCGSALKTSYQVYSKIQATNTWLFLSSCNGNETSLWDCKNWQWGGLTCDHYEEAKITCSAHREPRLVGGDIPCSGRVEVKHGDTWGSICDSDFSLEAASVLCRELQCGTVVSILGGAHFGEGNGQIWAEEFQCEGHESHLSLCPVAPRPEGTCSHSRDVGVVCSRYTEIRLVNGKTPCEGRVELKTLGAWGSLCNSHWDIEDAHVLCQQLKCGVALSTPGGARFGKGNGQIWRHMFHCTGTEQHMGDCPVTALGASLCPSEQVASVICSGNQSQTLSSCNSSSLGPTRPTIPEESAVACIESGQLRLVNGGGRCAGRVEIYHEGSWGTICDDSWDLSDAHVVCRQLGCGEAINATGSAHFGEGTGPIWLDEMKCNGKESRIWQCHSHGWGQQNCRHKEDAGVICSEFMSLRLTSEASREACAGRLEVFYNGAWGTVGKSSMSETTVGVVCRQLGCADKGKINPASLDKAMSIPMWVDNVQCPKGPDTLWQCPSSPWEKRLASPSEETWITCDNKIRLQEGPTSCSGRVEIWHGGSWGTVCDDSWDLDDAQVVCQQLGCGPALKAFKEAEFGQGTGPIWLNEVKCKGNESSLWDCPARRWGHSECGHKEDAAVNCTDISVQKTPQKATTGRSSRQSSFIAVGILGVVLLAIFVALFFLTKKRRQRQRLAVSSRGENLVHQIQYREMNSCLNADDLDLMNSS
Sequence of recombinant murine CD163 (R&D Systems, No. 7435-CD-050) (murine) (Q2VLH6 39-1045 limits assumed): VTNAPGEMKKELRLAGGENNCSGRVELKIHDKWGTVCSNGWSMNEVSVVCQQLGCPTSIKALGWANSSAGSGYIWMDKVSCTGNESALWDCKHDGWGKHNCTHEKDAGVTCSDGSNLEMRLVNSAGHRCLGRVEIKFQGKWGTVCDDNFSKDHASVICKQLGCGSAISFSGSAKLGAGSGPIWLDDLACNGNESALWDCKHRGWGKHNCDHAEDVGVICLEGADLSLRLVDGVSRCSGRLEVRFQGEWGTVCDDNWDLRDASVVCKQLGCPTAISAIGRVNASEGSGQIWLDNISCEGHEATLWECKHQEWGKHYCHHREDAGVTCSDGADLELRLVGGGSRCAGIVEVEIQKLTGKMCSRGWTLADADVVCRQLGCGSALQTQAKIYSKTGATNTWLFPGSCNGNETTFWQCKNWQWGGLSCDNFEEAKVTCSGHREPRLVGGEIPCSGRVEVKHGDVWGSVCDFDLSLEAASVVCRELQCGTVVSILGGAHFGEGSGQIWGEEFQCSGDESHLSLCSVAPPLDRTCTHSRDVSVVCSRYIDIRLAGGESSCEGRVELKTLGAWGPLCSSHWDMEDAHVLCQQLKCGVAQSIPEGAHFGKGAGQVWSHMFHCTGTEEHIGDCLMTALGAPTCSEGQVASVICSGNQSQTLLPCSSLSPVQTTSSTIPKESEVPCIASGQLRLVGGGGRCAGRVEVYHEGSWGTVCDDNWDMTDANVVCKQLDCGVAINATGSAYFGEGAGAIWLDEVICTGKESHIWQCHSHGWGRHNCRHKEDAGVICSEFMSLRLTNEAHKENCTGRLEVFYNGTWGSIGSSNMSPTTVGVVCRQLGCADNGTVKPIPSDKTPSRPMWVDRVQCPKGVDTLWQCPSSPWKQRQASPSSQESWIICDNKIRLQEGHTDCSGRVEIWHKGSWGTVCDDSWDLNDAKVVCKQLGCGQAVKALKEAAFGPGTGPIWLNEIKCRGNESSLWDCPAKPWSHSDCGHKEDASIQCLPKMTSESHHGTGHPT

anti-CD163 clone GHI/61 (antibody)
Kd [1]: 63 nM
koff [1]: 0.000467 s⁻¹
kon [1]: 7320 M⁻¹ s⁻¹
Kd [2]: 12 nM
koff [2]: 0.000178 s⁻¹
kon [2]: 14800 M⁻¹ s⁻¹

APC-labeled anti-huCD163 antibody (R&D Systems, #FAB1607A)
EC50 (read off the curve) [3]: 10 nM

control anti-huCD163 antibody, murine IgG1 (R&D Systems, #MAB1607)
EC50 (read off the curve) [4]: 0.01 nM
EC50 (read off the curve) [5]: 3 nM

commercially available rat anti-muCD163 antibody (Thermo Fisher Scientific #14-1631-82)
EC50 (read off the curve) [6]: 0.02 nM

EDHu-1 (antibody)
EC50 [7]: 0.05 nM
Ratio SRCR 1-5/ECD (EC50) [8]: 0.96
EC50 [9]: 0.052 nM

RM3/1 (antibody)
EC50 [9]: 0.061 nM

215927 (antibody)
EC50 [7]: 0.02 nM
Ratio SRCR 1-5/ECD (EC50) [8]: 1.17
EC50 [9]: 0.017 nM
